{"source": "paper PMC9519379", "about": "(Cell Reports Medicine, 2022)", "key": {"[1]": {"molecular_target": "SARS-CoV-2 Spike Trimer (B.1.1.529/Omicron) (SARS-CoV-2) (UniProt P0DTC2)", "assay": "single-molecule force spectroscopy"}, "[2]": {"molecular_target": "SARS-CoV-2 Spike protein Trimer (Wild type) (SARS-CoV-2) (UniProt P0DTC2)", "assay": "single-molecule force spectroscopy"}}}
{"substance": "H84T-banana lectin (H84T-BanLec) (from UniProt Q8L5H4 1-141) (designed binder)", "values": [{"measurement": "IC50", "setting": "[1]", "value": 2.6, "unit": "nM"}, {"measurement": "IC50", "setting": "[2]", "value": 5.2, "unit": "nM"}, {"measurement": "koff", "setting": "[2]", "value": 0.046, "unit": "s⁻¹"}, {"measurement": "kon", "setting": "[2]", "value": 99800, "unit": "M⁻¹ s⁻¹"}]}
